The values below come from patent publication US20200181245A1 (University of California, published 2020).

Test [1] has as its target T1, His and avidin-tagged 3RTau (352), recombinant full length 3R Tau protein (UniProt P10636-2 2-352, limits assumed).
T1 construct: mature; Used for phage panning, ELISA (immobilized) and immunoblot; The His and avidin tags are not described further; also called 3RT protein; 3-repeat Tau
Kind of test: ELISA and immunoblot.

Test [2] concerns the target T2, tau352 (human tau isoform 352, 15N-labelled, His tag removed by TEV cleavage) (human, UniProt P10636-2 2-352).
T2 construct: mature; Uniformly 15N-labelled for NMR
Kind of test: 2D 1H-15N HSQC NMR, about 1:1 molar ratio. Here is the method:
The interaction between scFv and tau352 was further studied by NMR spectroscopy. For this purpose, tau352 and 3RT antibody were recombinantly expressed in E. coli and HEK293 cells, respectively. 2D ¹H-¹⁵N heteronuclear single quantum coherence (HSQC) spectra were recorded on tau352 in absence and presence of 3RT antibody (FIG. 10A). The HSQC of tau352 has a narrow chemical shift dispersion indicative of an intrinsically disordered protein (FIG. 10A).
NMR experiments were recorded on a Bruker Avance 800 MHz spectrometer with 5% D₂O as lock solvent at 25° C. The 2D ¹H-¹⁵N HSQC experiments were recorded on a […] ¹⁵N labeled tau352 sample, for the interaction measurement an approximate 1:1 molar ratio between tau352 and scFv was used. For the 2D ¹⁵N HSQC, 512 data points were recorded in the indirect dimension with 128 scans per point for free tau352 and scFv-bound tau352.

T2 sequence (P10636 other isoform, or with tags, fused parts or gaps): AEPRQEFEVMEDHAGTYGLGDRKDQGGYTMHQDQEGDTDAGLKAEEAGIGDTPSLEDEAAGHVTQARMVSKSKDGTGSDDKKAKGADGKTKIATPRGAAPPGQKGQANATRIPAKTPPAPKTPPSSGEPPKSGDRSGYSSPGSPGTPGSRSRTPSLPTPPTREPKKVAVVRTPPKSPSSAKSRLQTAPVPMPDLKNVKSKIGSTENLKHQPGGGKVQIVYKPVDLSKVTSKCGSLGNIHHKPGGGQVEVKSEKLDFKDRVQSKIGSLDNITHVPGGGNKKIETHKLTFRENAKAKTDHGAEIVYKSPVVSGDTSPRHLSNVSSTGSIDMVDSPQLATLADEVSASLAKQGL
T1 sequence (P10636 other isoform, or with tags, fused parts or gaps limits assumed): as the sequence (P10636 other isoform, or with tags, fused parts or gaps) above

B1: 3RT single chain antibody (Clone 5F10) (scFv)
scFv: MEQVNLRESGAEVKKPGASVKVSCKVSGYTFTGYYMHWVRQAPGQGLEWMGWINSNSGATKYAQKFQGRVTMTRDTSITTAYMELSSLRSDDTAVYYCARGARDGYGFDYWGQGTLVTVLAGGGGSGGGGSGGGGSGAPSYVLTQPPSASGTPGQRVTISCSGGSSNIGSNAVSWYQQLPGTAPKLLIFTNDQRPSGVPDRFSGSKSGTSAPLAISGLQSEDESDYYCATWDDSLNGWVFGGGTKVTVRS
notes: Human scFv from a phage display library; It was expressed from mammalian scFV cassettes; also called 3RT scFV; 3RTau scFV
With B1, the binding result in test [1] and in test [2] was “binds” each time.
